Test results from FireProtDB (doi:10.1093/protein/15.10.817).

Settings: Rattus norvegicus, pH 7, Thermal, CD, HEPES 10 mM, whole UniProt chain shown

B1: High mobility group protein B1 wild type, P63159 (protein)
chain: MGKGDPKKPRGKMSSYAFFVQTCREEHKKKHPDASVNFSEFSKKCSERWKTMSAKEKGKFEDMAKADKARYEREMKTYIPPKGETKKKFKDPNAPKRPPSAFFLFCSEYRPKIKGEHPGLSIGDVAKKLGEMWNNTAADDKQPYEKKAAKLKEKYEKDIAAYRAKGKPDAAKKGVVKAEKSKKKKEEEDDEEDEEDEEEEEEEEDEDEEEDDDDE
With B1 the unfolding free energy (20 °C, NiSO4 1 mM) was 2.7 kcal/mol, the Tm (NiSO4 1 mM) was 40.6 °C and the “unfolding enthalpy (van 't Hoff)” value (NiSO4 1 mM) was 35.7 kcal/mol. The Tm was 40.6 °C and the “unfolding enthalpy (van 't Hoff)” value was 35.7 kcal/mol.
